Columns and labels:
Type in all cases: cell-based, human
[1] = tested on: wild-type and variant SNAP-GIPR; assay: Surface SNAP-GIPR expression (SNAP-tag labelling) in INS-1 cells; conditions: Fig 4G; Mean
How it was run: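 Surface GIPR is quantified from wide-field images after labelling intact transfected cells with a membrane-impermeant SNAP probe at 500 nM for 10 min at room temperature. Specific signal, corrected for nontransfected cells, is normalized to the experiment-wide average or to wild-type.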

[2] = tested on: wild-type and variant SNAP-GIPR; assay: Single-concentration GIP cAMP response by HTRF in AD293 cells; conditions: Fig S3F, HTRF, mean;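 further: ratio to experiment-wide average response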
Description: All variants were tested in parallel on each occasion to control for transfection efficiency differences between experiments.

[3] = tested on: wild-type and variant SNAP-GIPR; assay: cADDis cAMP imaging in AD293 cells, ensemble, expression-matched and per decile; conditions: Fig S3F, cADDis, mean
How it was run: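 Transient SNAP-GIPR plus cADDis BacMam in AD293; 24 h; SNAP-Surface AF647 500 nM, 10 min RT; wide-field 10X imaging at 37°C in KRBH/6 mM glucose/0.1% BSA. Cells failing IBMX/FSK response criteria excluded.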

[4] = tested on: wild-type and variant SNAP-GIPR; assay: Constitutive and agonist-mediated internalization, reversible SNAP-tag labelling, AD293 cells; parameters: key to Internalisation, Vehicle / Internalisation, +GIP / Internalisation, GIP-only: % internalization: residual fluorescence after Mesna vs pre-Mesna; Surface expression: unit not given here; conditions: Mean
How it was run: (§1)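 Surface SNAP-GIPR signal removable by Mesna was tracked by imaging before and 10 min after treatment in pH 8.6 TNE buffer. Internalization is the Mesna-resistant share of specific fluorescence.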

[5] = tested on: wild-type and variant SNAP-GIPR; assay: Constitutive and agonist-mediated internalization, reversible SNAP-tag labelling, INS-1 cells; parameters: key to Internalisation, GIP-only / Internalisation, Vehicle / Internalisation, +GIP: % internalization: residual fluorescence after Mesna vs pre-Mesna; conditions: Mean
How it was run: as §1

[6] = tested on: wild-type and variant SNAP-GIPR in Gipr-/- mouse islets; assay: Surface SNAP-GIPR expression in pancreatic islets; conditions: Fig 6B
Description: Islets were purified from Gipr^−/− mice as described in the “Islet isolation and culture” section. Islets were transduced with adenoviral wild-type or variant SNAP-tagged GIPR constructs (VectorBuilder) per the manufacturer’s instructions. All variants were tested in parallel on each occasion to control for transduction efficiency. Twenty-four hours posttransduction, whole, intact islets were labeled with SNAP-Surface Alexa Fluor 647 for 15 min at 37°C. Following labeling, the islets were placed in a drop of PBS in the center of a glass-bottom MatTek dish and imaged on a Zeiss LSM 780 inverted confocal microscope fitted with a 63X/1.4 NA oil immersion objective. Receptor surface levels were quantified in Fiji using a macro using full width at half maximum (FWHM) designed by the Facility for Imaging and Light Microscopy (FILM) at Imperial College London and expressed relative to wild-type GIPR. In additional experiments, islets transduced as above and labeled with SNAP-Surface-647 were fixed in 4% paraformaldehyde, permeabilized in 0.5% (v/v) Triton X-100 in PBS (15 min), washed once with PBS and incubated in blocking buffer (PBS and 1% BSA) for 1 hour, and incubated overnight at 4°C in primary antibodies against insulin (1:50; Dako IR002, Agilent Technologies) and glucagon (1:500; G2654, Sigma-Aldrich) in blocking buffer.

B1: E288G (protein)
chain: RAETGSKGQTAGELYQRWERYRRECQETLAAAEPPSGLACNGSFDMYVCWDYAAPNATARASCPWYLPWHHHVAAGFVLRQCGSDGQWGLWRDHTQCENPEKNEAFLDQRLILERLQVMYTVGYSLSLATLLLALLILSLFRRLHCTRNYIHINLFTSFMLRAAAILSRDRLLPRPGPYLGDQALALWNQALAACRTAQIVTQYCVGANYTWLLVEGVYLHSLLVLVGGSEEGHFRYYLLLGWGAPALFVIPWVIVRYLYENTQCWGRNEVKAIWWIIRTPILMTILINFLIFIRILGILLSKLRTRQMRCRDYRLRLARSTLTLVPLLGVHEVVFAPVTEEQARGALRFAKLGFEIFLSSFQGFLVSVLYCFINKEVQSEIRRGWHHCRLRRSLGEEQRQLPERAFRALPSGSGPGEVPTSRGLSSGTLPGPGNEASRELESYC
With B1 the Surface expression [1] was 0.2232, the “AD293 100 pM HTRF” value ([2]; AD293, 100 pM) was 0.007216 and the “AD293 100 nM HTRF” value ([2]; AD293, 100 nM) was 0.3648. For the same molecule, the “AD293 100 pM cADDis” value ([3]; AD293, 100 pM) was 0.802, the “AD293 100 nM cADDis” value ([3]; AD293, 100 nM) was 24.23 and the “+GIP internalisation (100 nM)” value ([4]; Fig 4E, GIP 100 nM) was 0.06598. The “GIP-specific internalisation (100 nM)” value ([4]; Fig 4E, GIP 100 nM) was 0.002144, the “Constitutive internalisation (100 nM)” value ([4]; Fig 4E) was 0.06383 and the Surface expression ([4]; Fig 4E) was 0.1099. For the same molecule, the “Internalisation, +GIP” value ([4]; Fig S4C, AD293) was 59.0204, the “Internalisation, GIP-only” value ([4]; Fig S4C, AD293) was 2.581 and the “Internalisation, Vehicle” value ([4]; Fig S4C, AD293) was 56.4393. For the same molecule, the “+GIP internalisation (100 nM)” value ([5]; Fig 4G, GIP 100 nM) was 0.1101, the “GIP-specific internalisation (100 nM)” value ([5]; Fig 4G, GIP 100 nM) was 0.004755 and the “Constitutive internalisation (100 nM)” value ([5]; Fig 4G) was 0.1053. The “Internalisation, +GIP” value ([5]; Fig S4C, INS-1) was 49.4833, the “Internalisation, GIP-only” value ([5]; Fig S4C, INS-1) was 2.12 and the “Internalisation, Vehicle” value ([5]; Fig S4C, INS-1) was 47.3633. The “Surface SNAP-GIPR expression in pancreatic islets” value (from here on “Surface SNAP-GIPR expression”) ([6]; replicate 1) was 0.1066, the “Surface SNAP-GIPR expression” value ([6]; replicate 2) was 0.6008 and the “Surface SNAP-GIPR expression” value ([6]; replicate 3) was 0.01404. The “Surface SNAP-GIPR expression” value ([6]; replicate 4) was -0.2745 and the “Surface SNAP-GIPR expression” value ([6]; replicate 5) was -0.1674.

Reference: article PMC13544220, “Glycemic and bodyweight effects of GIPR coding variation reflect differences in surface expression and intrinsic functional impairment” (Science Advances, 2026)
